Article PMC4459029, “Effects of receptor tyrosine kinase inhibitors on VEGF165a- and VEGF165b-stimulated gene transcription in HEK-293 cells expressing human VEGFR2” (British Journal of Pharmacology, 2015)
Values joined by “and” are separate entries in the source; they are usually repeats but may differ in a detail not shown here. Equal entries are not always repeated.

B1: VEGF165b: VEGF-A exon 8 splice variant, lower-efficacy partial agonist at VEGFR2, from R&D systems (protein)
chain: APMAEGGGQNHHEVVKFMDVYQRSYCHPIETLVDIFQEYPDEIEYIFKPSCVPLMRCGGCCNDEGLECVPTEESNITMQIMRIKPHQGQHIGEMSFLQHNKCECRPKKDRARQENPCGPCSERRKHLFVQDPQTCKCSCKNTDSRCKARQLELNERTCRSLTRKD
modifications: disulfide-linked homodimer; natural exon 8b splice isoform (VEGF165b); limits are the mature chain after removal of the 26-residue signal pep

Legend:
[1] = tested on: basal NFAT-luciferase activity; experiment: basal NFAT-luciferase production in VEGFR2 NFAT cells; type: cell-based, human; conditions: no VEGF; P < 0.05 one way ANOVA
From the text: HEK-293 cells expressing the human VEGFR2 and an NFAT reporter gene were provided by Promega Corporation. The NFAT reporter gene contained an NFAT response element linked via a minimal promoter to the firefly luciferase gene luc2P containing a human sequence enriched in proline (P), glutamic acid (E), serine (S) and threonine (T) protein destabilization sequence (Voon et al., [2005]). VEGFR2 NFAT cells were maintained in DMEM media supplemented with 10% FCS and 0.5% G418 in a humidified 5% CO2/95% air atmosphere at 37°C.
VEGFR2 NFAT cells were seeded in a T75 flask at 5 × 10^6 cells per flask using DMEM +10%FCS and incubated at 37°C in a 5% CO2/95% air atmosphere for 3 days until the cells were 100% confluent. On the fourth day, cells were washed with PBS and detached using 3 mL Versene® (ETDA 0.02% in PBS). Once cells had detached, 6 mL of DMEM +0.1%BSA was added and the cells were counted using a haemocytometer. […] After the 5 h incubation, 100 μL ONE-Glo Luciferase Assay reagent was added to each well and luminescence was measured according to the manufacturer's instructions on a Topcount platereader (Perkin Elmer, Llantrisant, UK).

human VEGFR2 = target: T1, human VEGFR2 (Homo sapiens, UniProt P35968); experiment: VEGFR2-stimulated NFAT-luciferase reporter gene activity in HEK-293 cells; type: cell-based
T1 construct: host or cells: HEK-293
Protocol: HEK-293 cells expressing the human VEGFR2 and an NFAT reporter gene were provided by Promega Corporation.
On the fourth day, cells were washed with PBS and detached using 3 mL Versene® (ETDA 0.02% in PBS). Once cells had detached, 6 mL of DMEM +0.1%BSA was added and the cells were counted using a haemocytometer. Cells were centrifuged at 200× g for 5 min, resuspended in DMEM +0.1%BSA and seeded at a density of 4 × 10^4 cells per well in 80 μL DMEM +0.1%BSA in white-sided, clear flat-bottomed 96-well plates (Greiner, Stonehouse, UK), which had been coated with 0.01 mg·mL^−1 poly-D-lysine in PBS for 30 min and washed with DMEM. […] After the 5 h incubation, 100 μL ONE-Glo Luciferase Assay reagent was added to each well and luminescence was measured according to the manufacturer's instructions on a Topcount platereader (Perkin Elmer, Llantrisant, UK).
All data were fitted using non-linear regression in Prism 6 (GraphPad Software, San Diego, CA, USA).
A comparison of the extra sum of squares that resulted from the analysis with separate EC50 or Emax values (over that with one of the parameters shared) using the F-test (Prism 6) then allowed for statistical analysis of the difference between EC50 or Emax values. […]

T1 sequence (P35968 20-1356): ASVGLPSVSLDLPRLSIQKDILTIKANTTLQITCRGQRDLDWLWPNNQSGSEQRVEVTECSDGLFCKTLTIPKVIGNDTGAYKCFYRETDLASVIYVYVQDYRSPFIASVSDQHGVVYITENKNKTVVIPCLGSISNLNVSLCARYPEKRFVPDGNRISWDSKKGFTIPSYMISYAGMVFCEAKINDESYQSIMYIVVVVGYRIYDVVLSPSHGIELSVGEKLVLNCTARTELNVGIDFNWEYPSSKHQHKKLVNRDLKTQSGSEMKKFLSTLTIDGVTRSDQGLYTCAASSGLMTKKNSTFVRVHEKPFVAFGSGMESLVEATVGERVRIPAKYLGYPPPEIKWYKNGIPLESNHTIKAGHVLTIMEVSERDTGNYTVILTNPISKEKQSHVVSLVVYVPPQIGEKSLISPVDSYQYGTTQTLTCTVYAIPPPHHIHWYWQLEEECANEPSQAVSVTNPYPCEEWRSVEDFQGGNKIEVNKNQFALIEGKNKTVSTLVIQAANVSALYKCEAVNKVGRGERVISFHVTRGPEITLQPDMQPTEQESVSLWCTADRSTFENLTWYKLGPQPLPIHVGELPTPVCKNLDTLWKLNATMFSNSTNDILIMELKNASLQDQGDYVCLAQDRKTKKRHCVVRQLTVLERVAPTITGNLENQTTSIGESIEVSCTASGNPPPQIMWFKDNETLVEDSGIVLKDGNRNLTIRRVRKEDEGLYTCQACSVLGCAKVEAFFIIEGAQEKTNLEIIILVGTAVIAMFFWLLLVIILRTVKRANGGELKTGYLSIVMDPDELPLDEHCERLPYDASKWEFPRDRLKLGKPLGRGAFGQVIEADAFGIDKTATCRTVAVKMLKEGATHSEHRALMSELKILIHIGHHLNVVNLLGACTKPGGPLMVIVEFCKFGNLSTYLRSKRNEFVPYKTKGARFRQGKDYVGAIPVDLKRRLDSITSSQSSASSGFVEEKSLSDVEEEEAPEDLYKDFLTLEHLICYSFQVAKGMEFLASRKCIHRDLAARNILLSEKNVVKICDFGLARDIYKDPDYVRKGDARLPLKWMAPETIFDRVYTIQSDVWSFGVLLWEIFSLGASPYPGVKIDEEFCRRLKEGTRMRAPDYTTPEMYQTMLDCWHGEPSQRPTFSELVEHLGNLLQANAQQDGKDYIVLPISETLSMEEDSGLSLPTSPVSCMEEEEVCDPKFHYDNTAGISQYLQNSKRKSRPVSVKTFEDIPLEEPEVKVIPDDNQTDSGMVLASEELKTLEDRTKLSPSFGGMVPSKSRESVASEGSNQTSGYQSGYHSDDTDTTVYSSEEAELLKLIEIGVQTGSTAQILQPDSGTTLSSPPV

| Molecule | concentration giving significant inhibition of basal NFAT-luciferase response [1] | −Log EC50 (human VEGFR2; agonist-stimulated NFAT-luciferase response, 5 h incubation) | pKA at VEGFR2 (operational model) (human VEGFR2; partial agonist fit) |
| --- | --- | --- | --- |
| COc1cc2c(Oc3ccc4[nH]c(C)cc4c3F)ncnc2cc1OCCCN1CCCC1 [Cediranib] | above 10 nM | – | – |
| B1 | – | 9.21 ± 0.08 | 8.83 and 8.8 |
